# Experimental data: PMC10208891
# What was measured:
# [1] = anti-Flag immunofluorescence with DAPI; conditions: glycan lost; control: SFB-YTHDF1-WT, untreated
# [2] = nuclear and cytoplasmic fractionation, immunoblot; conditions: glycan lost; control: SFB-YTHDF1-WT
protein,measurement,setting,value
YTH domain family 1 (YTHDF1): AFA (protein) parent chain: MSATSVDTQRTKGQDNKVQNGSLHQKDTVHDNDFEPYLTGQSNQSNSYPSMSDPYLSSYYPPSIGFPYSLNEAPWSTAGDPPIPYLTTYGQLSNGDHHFMHDAVFGQPGGLGNNIYQHRFNFFPENPAFSAWGTSGSQGQQTQSSAYGSSYTYPPSSLGGTVVDGQPGFHSDTLSKAPGMNSLEQGMVGLKIGDVSSSAVKTVGSVVSSVALTGVLSGNGGTNVNMPVSKPTSWAAIASKPAKPQPKMKTKSGPVMGGGLPPPPIKHNMDIGTWDNKGPVPKAPVPQQAPSPQAAPQPQQVAQPLPAQPPALAQPQYQSPQQPPQTRWVAPRNRNAAFGQSGGAGSDSNSPGNVQPNSAPSVESHPVLEKLKAAHSYNPKEFEWNLKSGRVFIIKSYSEDDIHRSIKYSIWCSTEHGNKRLDSAFRCMSSKGPVYLLFSVNGSGHFCGVAEMKSPVDYGTSAGVWSQDKWKGKFDVQWIFVKDVPNNQLRHIRLENNDNKPVTNSRDTQEVPLEKAKQVLKIISSYKHTTSIFDDFAHYEKRQEEEEVVRKERQSRNKQ,localisation_or_trafficking,[1],changes
same,localisation_or_trafficking,[2],changes
